Changes are numbered by the printed parent chain. In names and notes the source's numbering stands.
B1: Munc13-4 (wild type, His6-tagged human Munc13-4) (natural protein)
chain: MATLLSHPQQRPPFLRQAIKIRRRRVRDLQDPPPQMAPEIQPPSHHFSPEQRALLYEDALYTVLHRLGHPEPNHVTEASELLRYLQEAFHVEPEEHQQTLQRVRELEKPIFCLKATVKQAKGILGKDVSGFSDPYCLLGIEQGVGVPGGSPGSRHRQKAVVRHTIPEEETHRTQVITQTLNPVWDETFILEFEDITNASFHLDMWDLDTVESVRQKLGELTDLHGLRRIFKEARKDKGQDDFLGNVVLRLQDLRCREDQWYPLEPRTETYPDRGQCHLQFQLIHKRRATSASRSQPSYTVHLHLLQQLVSHEVTQHEAGSTSWDGSLSPQAATVLFLHATQKDLSDFHQSMAQWLAYSRLYQSLEFPSSCLLHPITSIEYQWIQGRLKAEQQEELAASFSSLLTYGLSLIRRFRSVFPLSVSDSPARLQSLLRVLVQMCKMKAFGELCPNTAPLPQLVTEALQTGTTEWFHLKQQHHQPMVQGIPEAGKALLGLVQDVIGDLHQCQRTWDKIFHNTLKIHLFSMAFRELQWLVAKRVQDHTTVVGDVVSPEMGESLFQLYISLKELCQLRMSSSERDGVLALDNFHRWFQPAIPSWLQKTYNEALARVQRAVQMDELVPLGELTKHSTSAVDLSTCFAQISHTARQLDWPDPEEAFMITVKFVEDTCRLALVYCSLIKARARELSSGQKDQGQAANMLCVVVNDMEQLRLVIGKLPAQLAWEALEQRVGAVLEQGQLQNTLHAQLQSALAGLGHEIRTGVRTLAEQLEVGIAKHIQKLVGVRESVLPEDAILPLMKFLEVELCYMNTNLVQENFSSLLTLLWTHTLTVLVEAAASQRSSSLASNRLKIALQNLEICFHAEGCGLPPKALHTATFQALQRDLELQAASSRELIRKYFCSRIQQQAETTSEELGAVTVKASYRASEQKLRVELLSASSLLPLDSNGSSDPFVQLTLEPRHEFPELAARETQKHKKDLHPLFDETFEFLVPAEPCRKAGACLLLTVLDYDTLGADDLEGEAFLPLREVPGLSGSEEPGEVPQTRLPLTYPAPNGDPILQLLEGRKGDREAQVFVRLRRHRAKQASQHALRPAP
B2: C2B* Munc13-4 (D941N/D947N) (natural protein)
chain: B1 chain with D941N, D947N
B3: C2A* Munc13-4 (D127N/D133N) (natural protein)
chain: B1 chain with D127N, D133N
B4: C2A*B* Munc13-4 (D127N/D133N/D941N/D947N) (natural protein)
chain: B1 chain with D127N, D133N, D941N, D947N

Key:
[1] = molecular target: t-SNAREs: syntaxin-1A/SNAP-25B, coexpressed, reconstituted in liposomes or supported bilayers (rat | mouse, UniProt P32851;P60879); test: liposome coflotation
Sequence of t-SNAREs: syntaxin-1A/SNAP-25B, coexpressed, reconstituted in liposomes or supported bilayers (P32851 whole entry, chain 1 of 2): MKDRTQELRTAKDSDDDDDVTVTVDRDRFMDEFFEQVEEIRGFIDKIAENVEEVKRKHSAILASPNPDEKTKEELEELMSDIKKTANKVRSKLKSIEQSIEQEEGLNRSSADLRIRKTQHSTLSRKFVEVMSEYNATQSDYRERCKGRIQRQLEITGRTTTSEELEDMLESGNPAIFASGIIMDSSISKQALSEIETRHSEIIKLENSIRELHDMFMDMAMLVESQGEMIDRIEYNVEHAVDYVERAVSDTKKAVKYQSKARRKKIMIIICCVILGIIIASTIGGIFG
Sequence of t-SNAREs: syntaxin-1A/SNAP-25B, coexpressed, reconstituted in liposomes or supported bilayers (P60879 whole entry, chain 2 of 2): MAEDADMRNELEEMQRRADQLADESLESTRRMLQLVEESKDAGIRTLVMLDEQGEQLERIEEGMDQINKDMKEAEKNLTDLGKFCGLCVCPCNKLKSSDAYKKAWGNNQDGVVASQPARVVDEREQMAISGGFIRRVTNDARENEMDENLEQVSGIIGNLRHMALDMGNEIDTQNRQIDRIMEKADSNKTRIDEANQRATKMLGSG

native gel or EMSA = molecular target: the molecule itself; test: native gel or EMSA

Row | Binder | fold increase in binding with Ca2+ against no Ca2+ [1] | binding result (native gel or EMSA) | binding result [1]
1 | B1 | 2.5 fold | – | –
2 | B2 | – | binds | binds
3 | B3 | – | binds | binds
4 | B4 | – | binds | binds

From PMC3328385 (The Journal of Cell Biology, 2012)
